Test results reported in publication PMC9226498, “Structural basis for interaction between CLAMP and MSL2 proteins involved in the specific recruitment of the dosage compensation complex in Drosophila” (Nucleic Acids Research, 2022).

Target: T1, CLAMP^40–153 (Drosophila melanogaster, UniProt Q9V9N4 40-153)
T1 construct: Tags and their cleavage are told only in the Supplementary Information; source: E. coli BL21 (DE3), purified (IMAC, anion-exchange chromatography)
T1 sequence (looked up): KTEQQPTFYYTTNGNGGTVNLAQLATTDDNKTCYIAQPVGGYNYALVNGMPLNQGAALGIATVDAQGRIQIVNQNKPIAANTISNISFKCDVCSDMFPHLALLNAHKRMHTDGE
Assay: NMR titration; stable isotope-labeled MSL2 618–655 titrated with unlabeled CLAMP 40–153 (or CLAMP 41–153 L139A/K146E); chemical shift perturbation, fast exchange; 25°C
Conditions: both partners purified

B1: MSL2^618–655 (domain or fragment, Drosophila melanogaster, UniProt P50534 618-655, looked up)
chain: ISLVPLNNLQQSQHPLVLVQNEKGEYQGFNIFQGSKPL
notes: Unlabelled or 13C,15N-labelled for NMR; Tags and their cleavage are told only in the Supplementary Information; also called MSL2 peptide; source: E. coli BL21 (DE3), purified (IMAC, anion-exchange chromatography)
- Kd: 200 ± 100 µM
